test system: Escherichia coli TOP10; test: shrunken log2 fold change of peptide-encoding DNA abundance (4.5 h post-induction vs induction); higher = less antimicrobial activity (less host growth inhibition); details: time post-induction: 4.5 h; library: site-saturation at positions 5, 18, 19, 20
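Also: peptides expressed intracellularly from a pBAD plasmid library in pooled LB shake-flask culture, induced with 0.3% L-arabinose, DNA abundance read by NGS, three biological replicates, DESeq2 with apeglm shrinkage.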

| Sequence | shrunken log2 fold change |
| --- | --- |
| RRIRERPPRLPRPRPRPWSFPRP | -0.0191 |
| RRIRRRPPRLPRPRPRPIFNPRP | -0.124 |
| RRIRGRPPRLPRPRPRPTLRPRP | 0.793 |
| RRIRLRPPRLPRPRPRPYPHPRP | -0.323 |
| RRIRIRPPRLPRPRPRPHCDPRP | -0.0356 |
| RRIRYRPPRLPRPRPRPVGIPRP | 0.177 |
| RRIRYRPPRLPRPRPRPKCHPRP | -0.139 |
| RRIRDRPPRLPRPRPRPFNYPRP | -0.048 |
| RRIRDRPPRLPRPRPRPEPKPRP | 1.4 |
| RRIRCRPPRLPRPRPRPMWFPRP | -0.254 |
| RRIRQRPPRLPRPRPRPYDIPRP | 0.0432 |
| RRIRHRPPRLPRPRPRPTWNPRP | -0.267 |
| RRIRARPPRLPRPRPRPQKRPRP | 0.172 |
| RRIRKRPPRLPRPRPRPDHDPRP | 0.0562 |
| RRIRVRPPRLPRPRPRPQSCPRP | -0.342 |
| RRIRARPPRLPRPRPRPWSRPRP | -0.151 |
| RRIRSRPPRLPRPRPRPFAHPRP | 0.0573 |
| RRIRFRPPRLPRPRPRPRWMPRP | -0.149 |
| RRIRKRPPRLPRPRPRPEARPRP | 0.429 |
| RRIRSRPPRLPRPRPRPLCLPRP | 0.259 |
| RRIRERPPRLPRPRPRPIWHPRP | -0.0406 |
| RRIRARPPRLPRPRPRPRLCPRP | 0.574 |
| RRIRSRPPRLPRPRPRPALNPRP | 0.161 |
| RRIRVRPPRLPRPRPRPVRGPRP | 0.767 |
| RRIRTRPPRLPRPRPRPQRRPRP | -0.0307 |

| Sequence | shrunken log2 fold change |
| --- | --- |
| RRIRVRPPRLPRPRPRPVYEPRP | -0.127 |
| RRIRKRPPRLPRPRPRPEECPRP | 0.00489 |
| RRIRRRPPRLPRPRPRPWCHPRP | -0.0754 |
| RRIRDRPPRLPRPRPRPGGEPRP | 1.41 |
| RRIRYRPPRLPRPRPRPEIQPRP | 0.0356 |
| RRIRYRPPRLPRPRPRPFWPPRP | 0.0953 |
| RRIRTRPPRLPRPRPRPERNPRP | -0.201 |
| RRIRLRPPRLPRPRPRPPLTPRP | 0.288 |
| RRIRHRPPRLPRPRPRPIWCPRP | -0.0133 |
| RRIRKRPPRLPRPRPRPFMEPRP | -0.00271 |
| RRIRRRPPRLPRPRPRPACHPRP | 0.306 |
| RRIRNRPPRLPRPRPRPHCPPRP | -1.27 |
| RRIRMRPPRLPRPRPRPYMDPRP | 0.000784 |
| RRIRRRPPRLPRPRPRPKCYPRP | 0.00463 |
| RRIRTRPPRLPRPRPRPYTAPRP | -0.389 |
| RRIRRRPPRLPRPRPRPNGEPRP | 0.43 |
| RRIRCRPPRLPRPRPRPYIWPRP | -0.0216 |
| RRIRGRPPRLPRPRPRPCVQPRP | 0.523 |
| RRIRRRPPRLPRPRPRPGIKPRP | -0.291 |
| RRIRLRPPRLPRPRPRPGPKPRP | 0.352 |
| RRIRRRPPRLPRPRPRPAADPRP | 0.594 |
| RRIRYRPPRLPRPRPRPFAYPRP | -0.00131 |
| RRIRVRPPRLPRPRPRPIHKPRP | -0.203 |
| RRIRTRPPRLPRPRPRPTNVPRP | 0.118 |
| RRIRQRPPRLPRPRPRPFCWPRP | 0.42 |

| Sequence | shrunken log2 fold change |
| --- | --- |
| RRIRFRPPRLPRPRPRPEAYPRP | -0.0029 |
| RRIRARPPRLPRPRPRPACNPRP | 0.089 |
| RRIRCRPPRLPRPRPRPAKIPRP | -0.361 |
| RRIRKRPPRLPRPRPRPFNGPRP | -0.407 |
| RRIRRRPPRLPRPRPRPDWPPRP | 0.556 |
| RRIRDRPPRLPRPRPRPLKNPRP | 0.0245 |
| RRIRSRPPRLPRPRPRPNDRPRP | 0.0698 |
| RRIRPRPPRLPRPRPRPTAHPRP | 0.231 |
| RRIRNRPPRLPRPRPRPYHSPRP | -0.654 |
| RRIRIRPPRLPRPRPRPQMGPRP | -0.0795 |
| RRIRFRPPRLPRPRPRPDLWPRP | 0.187 |
| RRIRDRPPRLPRPRPRPLHMPRP | -0.0438 |
| RRIRCRPPRLPRPRPRPWIRPRP | -0.374 |
| RRIRIRPPRLPRPRPRPSWDPRP | -0.462 |
| RRIRFRPPRLPRPRPRPVINPRP | -0.816 |
| RRIRVRPPRLPRPRPRPLTLPRP | -0.416 |
| RRIRQRPPRLPRPRPRPWEIPRP | -0.00822 |
| RRIRERPPRLPRPRPRPNWKPRP | -0.0166 |
| RRIRFRPPRLPRPRPRPQYRPRP | -0.171 |
| RRIRNRPPRLPRPRPRPCHAPRP | -0.37 |
| RRIRRRPPRLPRPRPRPDKMPRP | -0.122 |
| RRIRLRPPRLPRPRPRPVRWPRP | 0.928 |
| RRIRFRPPRLPRPRPRPNQYPRP | -1.01 |
| RRIRTRPPRLPRPRPRPNCIPRP | -0.288 |
| RRIRDRPPRLPRPRPRPSFTPRP | -0.404 |

| Sequence | shrunken log2 fold change |
| --- | --- |
| RRIRYRPPRLPRPRPRPTTGPRP | -0.549 |
| RRIRSRPPRLPRPRPRPGCFPRP | 0.225 |
| RRIRYRPPRLPRPRPRPYPHPRP | -0.112 |
| RRIRARPPRLPRPRPRPGPRPRP | 1.22 |
| RRIRTRPPRLPRPRPRPCCNPRP | -0.282 |
| RRIRHRPPRLPRPRPRPAKWPRP | -0.0376 |
| RRIRHRPPRLPRPRPRPMCCPRP | 0.101 |
| RRIRTRPPRLPRPRPRPESIPRP | -0.114 |
| RRIRARPPRLPRPRPRPNNFPRP | -0.236 |
| RRIRFRPPRLPRPRPRPRKTPRP | 0.0798 |
| RRIRERPPRLPRPRPRPIRLPRP | -0.0614 |
| RRIRYRPPRLPRPRPRPMGTPRP | -0.304 |
| RRIRQRPPRLPRPRPRPRYPPRP | -0.0427 |
| RRIRARPPRLPRPRPRPKFMPRP | 0.0584 |
| RRIRLRPPRLPRPRPRPHGHPRP | -0.126 |
| RRIRPRPPRLPRPRPRPFAVPRP | -0.113 |
| RRIRCRPPRLPRPRPRPDKMPRP | -0.156 |
| RRIRYRPPRLPRPRPRPSAPPRP | -0.353 |
| RRIRTRPPRLPRPRPRPQRAPRP | 0.265 |
| RRIRCRPPRLPRPRPRPHLFPRP | -0.198 |
| RRIRWRPPRLPRPRPRPDTTPRP | 0.255 |
| RRIRIRPPRLPRPRPRPGMVPRP | 0.0533 |
| RRIRYRPPRLPRPRPRPYHTPRP | -0.0274 |
| RRIRHRPPRLPRPRPRPTGSPRP | 0.0528 |
| RRIRWRPPRLPRPRPRPRERPRP | 0.859 |

| Sequence | shrunken log2 fold change |
| --- | --- |
| RRIRCRPPRLPRPRPRPVKIPRP | 0.108 |
| RRIRARPPRLPRPRPRPPCNPRP | 0.0888 |
| RRIRQRPPRLPRPRPRPNDFPRP | 0.0233 |
| RRIRNRPPRLPRPRPRPLWGPRP | -0.192 |
| RRIRRRPPRLPRPRPRPSFLPRP | -0.268 |
| RRIRIRPPRLPRPRPRPLGMPRP | -0.268 |
| RRIRCRPPRLPRPRPRPKWHPRP | -0.169 |
| RRIRQRPPRLPRPRPRPQVSPRP | 0.301 |
| RRIRRRPPRLPRPRPRPLFPPRP | 0.0907 |
| RRIRPRPPRLPRPRPRPQPFPRP | -0.149 |
| RRIRFRPPRLPRPRPRPTTCPRP | -0.19 |
| RRIRLRPPRLPRPRPRPNLDPRP | -0.18 |
| RRIRCRPPRLPRPRPRPEWCPRP | 0.145 |
| RRIRIRPPRLPRPRPRPTVYPRP | -0.177 |
| RRIRVRPPRLPRPRPRPRVEPRP | 0.558 |
| RRIRMRPPRLPRPRPRPAQSPRP | 2.88 |
| RRIRVRPPRLPRPRPRPQGWPRP | 0.522 |
| RRIRHRPPRLPRPRPRPYFLPRP | -0.996 |
| RRIRERPPRLPRPRPRPGPCPRP | 0.183 |
| RRIRARPPRLPRPRPRPAKPPRP | 0.127 |
| RRIRPRPPRLPRPRPRPQCKPRP | -0.398 |
| RRIRIRPPRLPRPRPRPCLYPRP | -0.248 |
| RRIRSRPPRLPRPRPRPLIHPRP | -0.279 |
| RRIRVRPPRLPRPRPRPNVFPRP | 0.0413 |
| RRIRVRPPRLPRPRPRPVPIPRP | -0.0742 |

| Sequence | shrunken log2 fold change |
| --- | --- |
| RRIRIRPPRLPRPRPRPWWIPRP | -0.0829 |
| RRIRGRPPRLPRPRPRPLVCPRP | 0.584 |
| RRIRWRPPRLPRPRPRPKTPPRP | 0.894 |
| RRIRARPPRLPRPRPRPINFPRP | 0.0601 |
| RRIRIRPPRLPRPRPRPSTMPRP | -1.18 |
| RRIRMRPPRLPRPRPRPVQIPRP | 0.378 |
| RRIRVRPPRLPRPRPRPWWLPRP | -0.0366 |
| RRIRCRPPRLPRPRPRPGRNPRP | -0.0027 |
| RRIRIRPPRLPRPRPRPSSKPRP | -0.599 |
| RRIRPRPPRLPRPRPRPARCPRP | 0.67 |
| RRIRCRPPRLPRPRPRPRQFPRP | 0.0823 |
| RRIRQRPPRLPRPRPRPAREPRP | -0.0167 |
| RRIRPRPPRLPRPRPRPYPEPRP | -0.421 |
| RRIRERPPRLPRPRPRPIYRPRP | -0.565 |
| RRIRERPPRLPRPRPRPVIEPRP | -0.201 |
| RRIRMRPPRLPRPRPRPKNKPRP | 0.408 |
| RRIRLRPPRLPRPRPRPFKNPRP | -0.499 |
| RRIRPRPPRLPRPRPRPWHVPRP | -0.0812 |
| RRIRFRPPRLPRPRPRPNHFPRP | -0.0292 |
| RRIRCRPPRLPRPRPRPQMTPRP | 0.218 |
| RRIRKRPPRLPRPRPRPQCWPRP | 0.00452 |
| RRIRGRPPRLPRPRPRPCEKPRP | 0.797 |
| RRIRHRPPRLPRPRPRPETYPRP | -0.00431 |
| RRIRSRPPRLPRPRPRPVDMPRP | 0.0294 |
| RRIRQRPPRLPRPRPRPKKLPRP | -0.296 |
